system: K4 kissing-loop RNA reporter; test: apparent KD of K4 kissing-loop reporter; higher = weaker reporter binding; settings: Eterna round: R107; input ligand: theophylline 20 uM
Experimental: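 RNA-MaP round R107: designed RNA switches with theophylline, tryptophan, arginine or FMN aptamers are transcribed on-chip within common flanks. They are titrated with a labelled K4 kissing-loop RNA reporter in RNA-MaP buffer (100 mM Tris pH 7.5, 80 mM KCl, 4 mM MgCl2), without ligand or with the indicated ligand. Median apparent KD per design.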
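Note: bound reporter read as fluorescence of individual clusters on recovered sequencing chips by microscopy, with normalized cluster intensities fitted with a binding model.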

| Sequence | apparent KD of K4 kissing-loop reporter |
| --- | --- |
| UUCUUGAUGGAAACAUCGAGAAUUACUGAUACCAGUAUCGAUAGAUACCCUUGGCAGCAGAAUCAGUAAUAACGAGUGAUGUUCG [Ex Theophylline A K4 4] | 321 nM |
| AAGAGCUAGGCGGCCGCCACUAGUUGUGAACACGUACAAGCCAGUGAUGUUGGUAUGAUGGACGGUAGGACCGGGCCUAGCUGAA [Exclusion - Tryptophan B (Freestyle 14)] | 267 nM |
| CAUUCAGUGAUGUUGGAAGGCGAGCGGGAUACCAGCGGAGACUCACGCCCUUGGCAGCCCACAUAUCCCAGGUAGAUAAUAGUUC [Same State - Theophylline A (Freestyle 6)] | 189 nM |
| AGACCUCAGUGAUGUUGAGGUAACACUGAUACCAGCGACUUAAUUCGCCCUUGGCAGCAGUCCACCGAGGUAUCUGAUUAGGUCA [#24 K4 Theophylline A Exclusion] | 273 nM |
| AGAACUGUCUGGGAUACCAGCCGAGGAGUGAUGUUCCGGCUCGACGAAACGUCGAGCUACGGCCCUUGGCAGCUCAGACAGUUCA [#22 K4 Theophylline B Same State] | 735 nM |
| GCCAGAGCGCGAAGGAGCGCCGUGACAGGUUGCUGCCGUGGGCAGUGAUGUUGCUCAAUCUGGCAGGUAGGUCGCGUGCUCUGGC | 226 nM |
| UCCUUUUUUGCCAGUGAUGUUGGACAGGAAGGAGCGGGCAUAAGCCCAGGUAGGUCGCCUGUCAACUUUCUUAUAGCCCUAAGGU [Edveza] | 210 nM |
| UAUUAAUUGACGGCCGCCACUAUUGUGAUUUAUUUGUUUGAGUGAUGUUUUGAUGUUUGAUUUUGUAGGACCGGGUUAUGUGUUA [zwzcmullin] | 816 nM |
| AGAUUCGACACGGCCGCCACUCGUGGUGGAUUAUCCUAUGUAAGACAUGAGUGAUGUUCAUGUACGAGGACCGGGUGUUGAGUCU [KL-XTryp-B5 #analogue] | 568 nM |
| GUUAUGGACCUUUUGAUCGUUCGUAGCGAUACCAGACAAUGGGCAGUCCCUUGGCAGCGCUAAUUGAGUGAUGUUCAAACGUGCA [theeternabot_exclusion_KL_Theo_A_46] | 331 nM |
| AGAAGGAGACUUGCAACGACUCCUUCAGACUAGGAUAUCAGGAAACUGAGAAGGAGUCUACUUGCAGUGAUGUUGCAAGAAUAAU [[F]''-[K]'-[F]'-[F1]-[F2]-[K1]-[K2]_Design3] | 135 nM |

same assay, conditions: Eterna round: R107; input ligand: tryptophan 2.4 mM

| Sequence | apparent KD of K4 kissing-loop reporter |
| --- | --- |
| UCCGGUCGGUGAGCCAGUGAUGUUGGUCAGAAGGAUAUCUGGCAACAGAGAAGGUCUGCAUCAGCCUAGAUAUCCUGGCGACCGG | 69.2 nM |
| CAUACGCAUGGAGGAUAUGAGAUUACUCAUGUCAUUUAAUAUUCUCAGUGAUGUUGAGAUUUUGGCUCAGAAGGCCAUGUGUAUG [Ex FMN B 18] | 543 nM |
| CUCGUGGGUUUGAGAGGGCUUGUGGGAAGUGAGGAUAUUUAGGGAGAAAGAAGGCACUAUAGAAUAUAGUGAUGUUAUAUAUGGG [SSFMNA.Q] | 256 nM |
| CCGUAGAACGGAAGGAGCGCCAUAGAUAAGAAUUCCGUAAGUGAGUGAUGUUCACACAAAUGGCAGGUAGGUCGCCGUUAUUUAG [Arg B Ex t5] | 201 nM |
| UAACUGCAGUGAUGUUGCAGAUGUCCUGACUAGGAUAUCAGGAAACUGAGAAGGAGUCCCUUCUACACUGCAGAGAAGGAGGACA [[K1]-[K2]-[F1]'-[F1]-[F2]-[F2]'-[K]'-[F]''_Design1] | 139 nM |
| UCUGUUGUAUAUGAUACCAGCAGUGAGAGACGAGAAGUAUAGUGAUGUUAUAUGAGAGAAUGCCCUUGGCAGCGUGUGCGUGUGG [SSTheophylB.aB] | 83.2 nM |
| ACAUCGGUUGAGAGUGAUGUUCCUUGUGUUCGAGGACCGGUACGGCCGCCACUCGGGUAGAAAAUAACAGAUGUGUUUCAUUUUU [BDazzled - #17 SS Tryptophan A] | 271 nM |
| GGAUGGUAGGCGGCCGCCACUAAAACAGAACACAUACAAGCCAGUGAUGUUGGUAUGAUGGUGUAUAGGACCGGGCCUAGAUAGA [Exclusion - Tryptophan B (Freestyle 5)] | 196 nM |
| CUUAUGGAGUGUCGUACCGGACACUGGGAAGGAGCGCAAUUCUUUGCAGGUAGGUCGCCCAGUGAUGUUGGGUGGCGCUGUCGAA [Xebeor] | 169 nM |
| ACGUCUCGUAAACUCGUGGUUUCGAUCGAUACCAGUAGCGAGAGUUACCCUUGGCAGCGACAUGAGUGAUGUUCAUGUACGAAGA [KL-XTheoA2] | 90.3 nM |
| AAGUACACGAUAGUGUACACCUAGUGAUGUUAGGAUAUGCAGAUAUGCAGAAGGAACGAGUCAUCUGACAAUAGUCGGAUGACAA [FmnAX 8 #OpenEnded #K4Early] | 82.4 nM |
| ACUGUACCGGGAAGGAGCGUGAAUGAGAAUGGAUAUAGUGAUGUUAUGUAUACGAACGAAUCGCAGGUAGGUCGCCCGGAUCCCU [SSArgB.aC] | 553 nM |
| AAGGGCUAGGCGGCCGCCACUGGUUGUGAACACAUACGAGCCAGUGAUGUUGGUAUUGUGUGCGGCAGGACCGGGCCUAGCCGAA [Exclusion - Tryptophan B (Freestyle 23)] | 322 nM |
| AGACUACUGACAGGAUAUAACAUCCUGGUCGUAUACCGAAAGGUAUACGAUUUCCUUCUAGUGAUGUUAGAAGGGUCGGUAGUCA [Omei KL FMN B Exc B v14] | 82.9 nM |
| AAAGUGUCAGCACGAGUGAUGUUCGACGAUACCAGCCUCGAUAGAGGCCCUUGGCAGCGUAAACCAAGGGCUGGCACAAAAUAAA [#SwitchBubble 6 #K4Early] | 1360 nM |
| GUAUAAAUAUAAGGAUAUGCAGGGAAAGUAAGAAUGGGUUAGUUGAACUUUAGUGAUGUUGAGGAAGCAGAAGGUGUAUAUGUGU [FMN B same state] | 319 nM |
| GGAUAGGACAGAGGAUAUCCUUGAGGCAAGAAACUUGUCUCUAAAAGGAUGAACCUAGUGAUGUUAGGAGAAGGCUGUCCUAUCG [FmnBX 13 - #SwitchBubble #StaticStem #Palindromic] | 95.9 nM |
| CCUUCUCUUGAUAGUGAUGUUAUCAAGGGCAAGGAUAUCAUCUCAAUGAGAAGGUGUCCUUGAUAACAUGGAGGUCUGAAACAGA [Omei KL FMN A Exc C v4] | 206 nM |
| AUUUAUGUAUCAGGAUAUUAGUGAUGUUUGUUUUUGUUAGUGAUGUUGAUAUUUGUUUUAUGUAUUUAAGAAGGGAUUGAGAUGU [wwewmullin] | 45.2 nM |
| AUGCUUAUAAUAACACUAUAUACAACUGAAGGAGCGACAAUAAAGUCAGGUAGGUCGCAGAAUAAAUGAGUGAUGUUCAUUUUUA [JR_ExcArginiA_Sub010] | 84.2 nM |
| AAGUGUGUGGCGGCCGCCACUAGAAUCCAGUGAUGUUGGAGAUAUCUCGUAAGAGAUAUCCGCCAUAGGACCGGGCCAUAUAGAA [Same State - Tryptophan B (Freestyle 15)] | 771 nM |

| Sequence | apparent KD of K4 kissing-loop reporter |
| --- | --- |
| UCGGACGCGCACCUAGGCCAAUCCACUGCGAAGGAUAUGCGCGCCAGCAGAAGGUCGUUUUAUGAGUGAUGUUUAGAAACAGCGU [theeternabot_exclusion_KL_FMN_A_25] | 246 nM |
| GGGAUGUAGUGAUGUUAUAUUAGAUGUAGACGAGGACCGGUACGGCCGCCACUCGUGAUGGCUGCUAGCACGUUUCGAUGUUUGC [ExTryptoA.Cr] | 309 nM |
| GUUACGCAUGGAAGGAGCGCACUCCGAUUGGACGACACAGUGAUGUUGUGGUUCGUUCGAAUGCAGGUAGGUCGCCAUGUGUAAC [Ex Arginine B K4 19] | 148 nM |
| CUCAAACCGUGGGCAUUUCGCAAAGUAGAUACCAGUCGCAACGGUGACCCUUGGCAGCUAGUAAAGUGAUGUUUUAUCGGCACCA [theeternabot_exclusion_KL_Theo_A_35] | 69.1 nM |
| AGCAUUAUCAGAAGGAGCGUGUAUAAUUCAAGAGAAUUGUUUUCGAGUGAUGUUCGUAAUACACAGGUAGGUCGCUGAUAUAGCA [JR_ExcArginiB_Sub001] | 221 nM |
| AAGGCCAGUGAUGUUGGCUUAACCUUCGAUACCAGAACCGAUCGUUUCCCUUGGCAGCGAACACAAUACCUCACAGCGUUAAGUA [theeternabot_sameState_KL_Theo_A_8] | 114 nM |
| GUACGCUGCUGAGUGAUGUUCAGCAAUCGCUAGGAUAUCGCUUUUGCGAGAAGGAGCGCAAUGAGGAAACUCGUUGUUAGUGUAC [FMN A 28] | 207 nM |
| UGGGUGUAGUGAUGUUAUAUAGAGAGUGAUACCAGUUUAGAGAGGAACCCUUGGCAGCAUAGAAGAGUAUCAUUGGAGGAGGAGG [ExTheophyl.Aw] | 433 nM |
| GCAGACCGCAGUGAUGUUGCGAAAUCGGAAGGAGCGCGUGAAAACGCAGGUAGGUCGCCGACACAGGGAUUAUAACCCUGUUUGC [Arginine A K4 16] | 154 nM |
| GAGCCAGAGGUUGCUGCGGGUUCCAGAGAUACCAGCCGUAUUGAAGGCCCUUGGCAGCUCGAGUGAUGUUCGAGCCGCCUCUGAC [Isquleorve] | 110 nM |
| UUCUUGAUGGAAACAUCGAGAAUUACUGAUACCAGUAUCGAUAGAUACCCUUGGCAGCAGAAUCAGUAAUAACGAGUGAUGUUCG [Ex Theophylline A K4 4] | 243 nM |
| AAGAGCUAGGCGGCCGCCACUAGUUGUGAACACGUACAAGCCAGUGAUGUUGGUAUGAUGGACGGUAGGACCGGGCCUAGCUGAA [Exclusion - Tryptophan B (Freestyle 14)] | 294 nM |
| CAUUCAGUGAUGUUGGAAGGCGAGCGGGAUACCAGCGGAGACUCACGCCCUUGGCAGCCCACAUAUCCCAGGUAGAUAAUAGUUC [Same State - Theophylline A (Freestyle 6)] | 188 nM |
| AGACCUCAGUGAUGUUGAGGUAACACUGAUACCAGCGACUUAAUUCGCCCUUGGCAGCAGUCCACCGAGGUAUCUGAUUAGGUCA [#24 K4 Theophylline A Exclusion] | 155 nM |
| AGAACUGUCUGGGAUACCAGCCGAGGAGUGAUGUUCCGGCUCGACGAAACGUCGAGCUACGGCCCUUGGCAGCUCAGACAGUUCA [#22 K4 Theophylline B Same State] | 340 nM |
| GCCAGAGCGCGAAGGAGCGCCGUGACAGGUUGCUGCCGUGGGCAGUGAUGUUGCUCAAUCUGGCAGGUAGGUCGCGUGCUCUGGC | 248 nM |
| UCCUUUUUUGCCAGUGAUGUUGGACAGGAAGGAGCGGGCAUAAGCCCAGGUAGGUCGCCUGUCAACUUUCUUAUAGCCCUAAGGU [Edveza] | 245 nM |
| UAUUAAUUGACGGCCGCCACUAUUGUGAUUUAUUUGUUUGAGUGAUGUUUUGAUGUUUGAUUUUGUAGGACCGGGUUAUGUGUUA [zwzcmullin] | 711 nM |
| AGAUUCGACACGGCCGCCACUCGUGGUGGAUUAUCCUAUGUAAGACAUGAGUGAUGUUCAUGUACGAGGACCGGGUGUUGAGUCU [KL-XTryp-B5 #analogue] | 272 nM |
| GUUAUGGACCUUUUGAUCGUUCGUAGCGAUACCAGACAAUGGGCAGUCCCUUGGCAGCGCUAAUUGAGUGAUGUUCAAACGUGCA [theeternabot_exclusion_KL_Theo_A_46] | 364 nM |
| AGAAGGAGACUUGCAACGACUCCUUCAGACUAGGAUAUCAGGAAACUGAGAAGGAGUCUACUUGCAGUGAUGUUGCAAGAAUAAU [[F]''-[K]'-[F]'-[F1]-[F2]-[K1]-[K2]_Design3] | 125 nM |
